The record followed here is paper doi:10.1101/2023.04.28.538690, “Post-translational modification of SPATULA by SECRET AGENT and SPINDLY promotes organ symmetry transition at the gynoecium apex” (bioRxiv, 2023).

Common to all, as to assay: FRET or BRET; FRET-FLIM in nuclei of co-infiltrated N. benthamiana leaves (with P19), 48 h; SPT-EGFP as donor, RFP fusions as acceptors; with or without co-expressed SEC-3xHA or SPY-3xHA; at least 60 nuclei per condition
Background: Bioluminescence resonance energy transfer reports proximity on the nanometre scale.

The target in data set [1] is T1, INDEHISCENT (IND) fused to RFP (p35S:IND-RFP) (Arabidopsis thaliana, UniProt O81313 1-198).
T1 construct: INDEHISCENT (IND), bHLH transcription factor of Arabidopsis thaliana; source: N. benthamiana leaves, Agrobacterium-infiltrated, in nuclei of the leaf cells
T1 sequence (looked up): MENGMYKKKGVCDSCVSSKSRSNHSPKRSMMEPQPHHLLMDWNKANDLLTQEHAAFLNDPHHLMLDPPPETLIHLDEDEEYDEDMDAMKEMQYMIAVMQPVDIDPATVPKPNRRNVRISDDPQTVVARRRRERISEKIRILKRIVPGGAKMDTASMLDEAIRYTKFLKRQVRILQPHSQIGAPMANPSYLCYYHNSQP
Particulars: partners not purified.

Data set [2] concerns the target T2, HECATE 1 (HEC1) fused to RFP (p35S:HEC1-RFP) (Arabidopsis thaliana, UniProt Q9FHA7 1-241).
T2 construct: HECATE 1 (HEC1), bHLH transcription factor of Arabidopsis thaliana; source: N. benthamiana leaves, Agrobacterium-infiltrated, in nuclei of the leaf cells
T2 sequence (looked up): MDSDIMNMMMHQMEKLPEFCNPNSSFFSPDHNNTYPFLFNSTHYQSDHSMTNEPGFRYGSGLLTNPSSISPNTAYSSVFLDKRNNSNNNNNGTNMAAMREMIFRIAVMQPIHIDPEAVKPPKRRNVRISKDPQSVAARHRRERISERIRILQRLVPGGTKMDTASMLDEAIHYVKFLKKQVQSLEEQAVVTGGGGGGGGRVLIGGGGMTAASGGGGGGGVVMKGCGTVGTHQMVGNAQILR
The note with it: partners not purified.

Data set [3] concerns the molecule itself.

B1: SPATULA (SPT) fused to EGFP (p35S:SPT-GFP); second copy in the homodimer test fused to RFP (p35S:SPT-RFP) (natural protein, Arabidopsis thaliana, UniProt Q9FUA4 1-373, looked up)
chain: MISQREEREEKKQRVMGDKKLISSSSSSSVYDTRINHHLHHPPSSSDEISQFLRHIFDRSSPLPSYYSPATTTTTASLIGVHGSGDPHADNSRSLVSHHPPSDSVLMSKRVGDFSEVLIGGGSGSAAACFGFSGGGNNNNVQGNSSGTRVSSSSVGASGNETDEYDCESEEGGEAVVDEAPSSKSGPSSRSSSKRCRAAEVHNLSEKRRRSRINEKMKALQSLIPNSNKTDKASMLDEAIEYLKQLQLQVQMLTMRNGINLHPLCLPGTTLHPLQLSQIRPPEATNDPLLNHTNQFASTSNAPEMINTVASSYALEPSIRSHFGPFPLLTSPVEMSREGGLTHPRLNIGHSNANITGEQALFDGQPDLKDRIT
notes: SPATULA (SPT) of Arabidopsis thaliana; In the SPT;SPT test one copy carried EGFP (FRET donor) and the other RFP (acceptor) in place of EGFP; both copies are written as this one molecule; also called SPT-EGFP; source: N. benthamiana leaves, Agrobacterium-infiltrated, in nuclei of the leaf cells
Regarding B1, the FRET efficiency in data set [1] is 9.6%; in data set [2], 7.4%; in data set [3] it was 5.7%.
